Experimental findings from patent US12723100 (CSPC MEGALITH BIOPHARMACEUTICAL, dated 2026) are described below.

In test [1] the target is T1, full-length human Nectin-4 on cells (human, UniProt Q96NY8 32-510).
T1 construct: the cell is named under assay; also called CHO-Nectin-4 cells; Nectin-4-CHO
T1 sequence: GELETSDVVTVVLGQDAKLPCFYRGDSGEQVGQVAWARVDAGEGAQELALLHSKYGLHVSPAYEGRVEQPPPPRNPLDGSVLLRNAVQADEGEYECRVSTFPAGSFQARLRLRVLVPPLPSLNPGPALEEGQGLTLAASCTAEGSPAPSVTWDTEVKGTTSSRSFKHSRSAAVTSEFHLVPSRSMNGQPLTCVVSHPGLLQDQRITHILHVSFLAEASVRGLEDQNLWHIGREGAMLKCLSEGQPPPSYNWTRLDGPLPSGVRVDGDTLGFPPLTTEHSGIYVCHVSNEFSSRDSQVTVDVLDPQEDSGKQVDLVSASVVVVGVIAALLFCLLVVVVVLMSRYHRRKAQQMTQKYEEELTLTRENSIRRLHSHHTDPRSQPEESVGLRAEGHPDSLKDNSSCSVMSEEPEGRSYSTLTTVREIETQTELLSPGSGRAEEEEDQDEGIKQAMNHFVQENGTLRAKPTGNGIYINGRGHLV
Kind of test: flow cytometry, CHO-Nectin-4 cells. How it is done: (§1) The binding specificity of the disclosed anti-Nectin-4 antibodies was also assessed by FACS. Briefly, CHO-Nectin-4 cells (vs. parental CHO cells) or endogenous cell lines expressing Nectin-4 (T-47D) were incubated with dilutions of purified recombinant antibodies. Cells were washed, and specific antibody binding was detected with Alexa 647 labeled goat anti-mouse IgG antibody. Flow cytometric analysis was performed on a flow cytometry instrument (Intellicyte, IQue plus, Sartorius).
(§2) N4_mAb 1 to N4_mAb 8 antibodies bind to CHO-Nectin-4 cells and SKBR3 cells by FACS.

The target of test [2] is T2, recombinant human Nectin4-His protein (human, UniProt Q96NY8 32-349).
T2 construct: Analyte of the SPR assay; May be the same protein as m12; also called human Nectin-4 ECD; not shown: His tag
T2 sequence: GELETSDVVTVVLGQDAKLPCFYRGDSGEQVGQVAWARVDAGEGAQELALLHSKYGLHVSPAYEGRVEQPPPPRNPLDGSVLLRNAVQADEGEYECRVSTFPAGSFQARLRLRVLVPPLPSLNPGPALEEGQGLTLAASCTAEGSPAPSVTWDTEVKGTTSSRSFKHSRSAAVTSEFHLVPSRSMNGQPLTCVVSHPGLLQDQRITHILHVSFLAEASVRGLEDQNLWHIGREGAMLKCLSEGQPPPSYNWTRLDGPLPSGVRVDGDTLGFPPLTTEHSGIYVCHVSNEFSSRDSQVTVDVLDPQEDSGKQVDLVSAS
Put plainly: SPR (BIAcore 3000), antibody captured by anti-human IgG, Nectin4-His as analyte. How it is done: The binding kinetics of the disclosed anti-Nectin-4-specific antibodies to recombinant human Nectin-4 was determined by Surface plasmon resonance (SPR) using BIAcore 3000 system. Briefly, CM5 chip was immobilized via amine coupling chemistry with anti-human IgG antibody (GE, Cat No BR-1000-12, lot 10283568) following the application wizards on Flow cell 4. Flow cell 3 remained unmodified to serve as a reference cell for subtraction of systematic instrument noise and drift. Run Fc4-3 detection with double blank (Fc3 and blank analyte buffer). Antibody samples were diluted to 1 ug/mL in HBS-EP and injected at a flow rate of 10 ul/min for 1 minute. Analyte recombinant human Nectin4-His protein was diluted from 10 to 0.156 nM ([…], 5 points to 0 nM in HBS-EP buffer) and injected at 50 uL/minute for 2 minutes, followed by 6 minutes dissociation. All the analyses were performed with double blanks, Fc3 and blank analyte buffer, to reduce the background. Data were analyzed using BIAevaluation software (version 4.1.1) by 1:1 binding with mass transfer model with global fit to determine apparent binding kinetics.

Test [3] concerns the target T1, full-length human Nectin-4 on cells. Put plainly: flow cytometry competition on CHO-Nectin-4 cells; competitor biotinylated human Nectin-1-His. The method, then:
The ability of disclosed Nectin4-specific antibodies to block Nectin-1 binding to Nectin-4 expressing cells (CHO cells transfected with human Nectin-4) was determined by FACS. Briefly, CHO-Nectin-4 cells were incubated with dilutions of the disclosed Nectin-4 purified recombinant antibodies. Then, biotinylated human Nectin-1 with His tag (ACROBiosystems, catalog number: PV1-H5223, lot: 733-38GS1-47, 0.75 ug/ml) was added to the plate. After 30-minute incubation, cells were washed, followed by adding Streptavidin Alexa 647 (1:1000) to the samples. After a 30 minute incubation, the samples were analyzed on a flow cytometry instrument (Intellicyte, IQue plus, Sartorius) for Nectin-1 blocking activity. The positive control antibody used in this blocking assay is a reference antibody (known to be a recombinant Nectin-4 specific antibody, made by Novarock Biotherapeutics, lot: 03042020KD).

For test [4] the target is unchanged. Kind of test: flow cytometry, SKBR3 cells (endogenous Nectin-4). How it is done: as §1, §2
A general note: Flow cytometry measures light scatter and fluorescence of single cells or particles in a stream.

Test [5] addresses T3, human recombinant Nectin-4 protein (extracellular domain) (human, UniProt Q96NY8 32-349).
T3 construct: also called recombinant Nectin-4 (extracellular domain); human Nectin-4 recombinant protein
T3 sequence: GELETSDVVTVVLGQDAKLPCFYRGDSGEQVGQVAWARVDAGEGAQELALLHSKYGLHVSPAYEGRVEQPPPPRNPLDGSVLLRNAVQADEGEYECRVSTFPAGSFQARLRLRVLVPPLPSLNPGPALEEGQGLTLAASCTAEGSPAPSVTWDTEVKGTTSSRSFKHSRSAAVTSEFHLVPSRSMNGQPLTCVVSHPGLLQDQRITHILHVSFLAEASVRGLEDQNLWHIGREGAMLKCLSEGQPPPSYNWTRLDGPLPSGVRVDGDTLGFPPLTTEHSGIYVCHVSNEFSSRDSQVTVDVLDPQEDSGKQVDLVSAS
Kind of test: ELISA, recombinant human Nectin-4 coated on plate. How it is done:
The binding specificity of the disclosed anti-Nectin-4 antibodies was assessed by ELISA. Briefly, human recombinant Nectin-4 protein was directly coated to ELISA plates. Purified antibodies were then added to the plates followed by detection by goat-anti-mouse IgG-HRP. After addition of ABTS substrate, ELISA plates were read using an ELISA plate reader (Bioteck). The controls depicted in FIG. 2: PC1 refers to a reference antibody (known to be a Nectin-4 specific recombinant antibody, made by Novarock Biotherapeutics, lot no: 03042020KD); the negative control is a human IgG1 (Dendritics, catalog no: DDXCH01P-100, lot no: DDXCH01-028).
The ELISA binding EC50 values of the eight anti-Nectin-4 antibodies, N4_mAb 1 to N4_mAb 8 and the positive control antibody were listed in Table 3 below.
(In general: An ELISA detects its analyte on a solid surface through an enzyme-linked reagent.)

B1: N4_mAb 6 (antibody, human IgG1, V domains shown)
VH: QVQLQQSGPELVKPGASVRISCKASGYTFTTYYIHWVKQRPGQGLEWIGWIYPGNVNTKYTENFKDKATLTADKSSSTAYMQLSSLTSEDSAVYFCARGLYYFDFWGQGTTLTVSS
VL: SIVMTQTPKFLLVSAGDRVTITCKASQSVNNDVAWYQQKPGQSPKLLIYYASNRDTGVPDRFTGSGFGTDFTFTISSVQAEDLAVYFCQQDYSSPYTFGGGTKLEIK
notes: Tested as chimera (murine variable regions, human IgG1/kappa constants); not shown: human IgG1 constant region (Uniprot P01857); human Kappa light chain constant region (UniProt P01834)
One may read the EC50 as the concentration at which the effect is half-maximal. By Kd is commonly meant the constant that tells how readily two partners part at equilibrium. For the molecule B1, the 50% effective concentration (EC50) in test [1] turned out to be 0.12 nM; in test [3], 0.12 nM; in test [4], 0.04 nM; in test [5], 0.03 nM. Further, the equilibrium dissociation constant (Kd) in test [2] is 0.392 nM.

B2: N4_mAb 8 (antibody, human IgG1, V domains shown)
VH: QVQLQQSGPVLVKPGASVRISCKASGYTFTSYYIHWVKQRPGQGLEWIGWIYPGNVNTKYNENFRDKATLTADKSSSTSYMQLSSLTSEDSAVYFCARGIYYFDYWGQGTTLTVSS
VL: IIVMTQTPKFLLVSAGDRVTITCKASQSVNNDVAWYQEKPGQSPKLLIYYASNRDTGVPDRFTGSGYGTDFTFTISTVQAEDLAVYFCHQDYSSPFTFGSGTKLEIK
notes: as for B1
Regarding B2, the EC50 in test [1] came to 0.23 nM; in test [3], 0.33 nM; in test [4], 0.05 nM; in test [5], 0.14 nM. Also, in test [2], the dissociation constant (Kd) was 0.375 nM.

B3: N4_mAb 7 (antibody, human IgG1, V domains shown)
VH: QVQLQQSGPELVKPGASVKMSCKASGYTFTTYYIHWVKQRPGQGLEWIGWIYPGNAGIKSNEKFKGKTTLTADKSSSTAYMLLSSLTSEDSAIYFCARGVYFFDYWGQGTTLTVSS
VL: SIVMTQTPKFLLVSAGDRVTITCKASQSVNNDVSWFQQKPGQSPKLLIYYASNRYTGVPDRFSGSGYGTDFTFTITTVQAEDLAVYFCQQDYSSPYTFGGGTKLEIK
notes: as for B1
As to B3, the concentration for a half-maximal effect (EC50) in test [1] amounted to 0.18 nM; in test [3], 0.21 nM; in test [4], 0.05 nM; in test [5], 0.04 nM. The equilibrium dissociation constant (Kd) in test [2] turned out to be 0.39 nM.

B4: N4_mAb 3 (antibody, human IgG1, V domains shown)
VH: EVQLQQSGAELVKPGASVKLSCTVSGFNIKDTYMHWVKQRPEQGLEWIGRIDPANGNTKYDPKFQGKATIIADKASNTAYLQLSSLTSEDAAVYYCAHYYGSSYFAMDCWGQGTSVTVSS
VL: DIVMTQSHKFMSTSVGDRVSITCKASQDVSTAVAWYQQKPGQSPKLLIYWASTRHTGVPDRFTGSGSGTDYTLTISSVQTEDLALYYCQQHYSTPLTFGAGTKLELK
notes: Tested as chimera (human IgG1/kappa constants); not shown: human IgG1 constant region (Uniprot P01857); human Kappa light chain constant region (UniProt P01834)
With B4, the EC50 in test [1] was 0.75 nM; in test [3], 0.3 nM; in test [4] it was 45 nM; in test [5], 1.51 nM. Moreover, the dissociation constant (Kd) in test [2] turned out to be 17.2 nM.

B5: N4_mAb 1 (antibody, human IgG1, V domains shown)
VH: QVQLKQSGPGLVQPSQSLSITCTVSGFSLTNYGVNWVRQPPGKGLEWLGVIWSGGSTDYNAAFISRLSISKDISKSQVFFKMNSLQADDTAKYYCAREGYDGYAMDYWGQGTSVTVSS
VL: DIQMTQSPASLSVSVGETVTITCRASENIFSSLAWYQQKQGKSPQLLVYGATNLADGVPSRFSGSGSGTQYSLKINSLQSEDFGTYWCQHFWGNPWTFGGGTKLEIK
notes: as for B1
On to B5, for which the EC50 in test [1] was determined as 0.29 nM; in test [3] it was 0.78 nM; in test [4], 0.24 nM; in test [5], 0.14 nM. Moreover, the dissociation constant (Kd) in test [2] is 1.25 nM.

B6: N4_mAb 2 (antibody, human IgG1, V domains shown)
VH: QVQLKQSGPNLVQPSQSLSITCTVSGFSLTTYGAHWVRQSPGKGLEWLGVIWRGGSTDYNAAFMSRLSITKDNSKSQVFFKMNSLQADDTAIYYCAKIGYDGYAMDNWGQGTSVTVSS
VL: DFQVTQSPASLSASVGETVTITCRTSENIHNYLAWYQQKQGKSPQLLVYNAKTLADGVPSRFSGSGSGTQYSLKINSLQPEDFGTYYCQHFWSSPWTFGGGTKLEIK
notes: as for B4
As for B6, the concentration giving a half-maximal response (EC50) in test [1] came out at 0.64 nM; in test [3], 0.64 nM; in test [4], 1.8 nM; in test [5], 0.12 nM. The dissociation constant (Kd) in test [2] stood at 0.884 nM.

B7: N4_mAb 5 (antibody, human IgG1, V domains shown)
VH: EVQLQQSGPDLVKPGASVKISCKASGYSFTGHYMHWVKQSHGKSLEWIGRVNPNNGGSSYNQKFKDKAILTVDKSSTTAYMELRSLTSEDSAVYYCARDPLGGSYGFAYWGQGTLVTVSA
VL: DIVLTQSPASLAVSLGQRATISCRASQSVTTSSYSYMHWYQQKPGQPPKLLIKYASNLESGVPARFSGSGSGTDFTLNIHPVEEEDTATYYCQHSWEIPYTFGGGTKLEMK
notes: as for B4
Take B7: the concentration for a half-maximal effect (EC50) in test [1] was 0.38 nM; in test [3], 0.5 nM; in test [4] it was 0.52 nM; in test [5], 0.13 nM. The Kd in test [2] worked out at 1.58 nM.

B8: N4_mAb 4 (antibody, human IgG1, V domains shown)
VH: DVQLQESGPDLVKPSQSLSLTCTVTGYSITSAYNWHWIRQFPGNKLEWMGYIHYSGRTNYNPSLKSRISITRDTSKNQFFLQLNSLTTEDTATYYCARWITTATGWYLDVWGAGTTVTVSS
VL: not shown
notes: as for B4
For B8, the figures for the half-maximal effective concentration (EC50) in test [1], in test [4] and in test [5] were 0.57 nM, 1.8 nM and 1.12 nM, respectively. The Kd in test [2] worked out at 1.26 nM.
